Measurements published in PMC10767740.

Key:
TDP-43 monomer (TDP-M) = experiment: SPR; details: protein immobilized on CM5; SPR Biacore 8K, CM5 chip, protein amine-coupled (30 ug/mL in NaAc pH 4.0); TG12 7.8-8000 nM in 1x PBS + 0.02% Tween-20; 120 s association and dissociation; 1:1 …
[1] = tested on: TDP-43 native oligomer (NA-O); experiment: SPR; details: protein immobilized on CM5, SPR Biacore 8K, CM5 chip, protein amine-coupled (30 ug/mL in NaAc pH 4.0), TG12 7.8-8000 nM in 1x PBS + 0.02% Tween-20, 120 s association and dissociation, 1:1 …

Chain of TDP-43 monomer (TDP-M) (chain, as listed by the source): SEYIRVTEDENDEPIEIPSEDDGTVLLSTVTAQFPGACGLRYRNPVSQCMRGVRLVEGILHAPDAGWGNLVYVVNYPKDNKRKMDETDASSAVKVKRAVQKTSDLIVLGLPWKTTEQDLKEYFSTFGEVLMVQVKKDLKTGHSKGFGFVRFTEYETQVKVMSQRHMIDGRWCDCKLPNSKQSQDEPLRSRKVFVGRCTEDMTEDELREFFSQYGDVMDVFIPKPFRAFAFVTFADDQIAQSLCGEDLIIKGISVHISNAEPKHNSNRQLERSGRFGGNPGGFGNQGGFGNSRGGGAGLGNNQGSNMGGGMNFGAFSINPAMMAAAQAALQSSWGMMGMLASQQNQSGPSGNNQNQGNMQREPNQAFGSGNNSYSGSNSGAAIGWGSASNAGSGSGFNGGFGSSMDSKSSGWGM

TG12
Kd (TDP-43 monomer (TDP-M)): 155 nM | Kd [1]: 125 nM
